Test: yeast display, Sf9 membrane polyspecificity reagent, FACS + sequencing; frameworks hold sequencing errors
Procedure, shortened: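 In a synthetic yeast display library (Saccharomyces cerevisiae BJ5465), nanobody expression was induced with galactose for 36–48 hours. FACS gates were set low and high (top ~1%) using anti-HA fluorescence for expression and streptavidin fluorescence for binding of the Sf9 membrane reagent. Each polyreactivity label is drawn from the gate of origin.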

| Sequence | polyreactivity (PSR sort gate) |
| --- | --- |
| QVQLVESGRGLVQAGGRLRLSCAASGSTFDGYAMGLYRQAPGKERELVAAITVSVGSTYYADSVKGRFTISRDNAKNTVYLQMNSLKPEDTAVYYCAADYDYQYRYYYWGQGTKVTVSS | low polyreactivity |
| QVQLVESGGGLVQAGGSLRLSCAATGRTLKYNAMGRYRKAPGKERELVAAISYSGSSTYYADSVKGRFTISRDNAKNTVYLQMHSLKPEDTAVYYCNTARPTAAYDYWGQGTQVTVSS | low polyreactivity |
| HVLLVESAGGLVQAGGSLRLSCAASGLIFHRYAMGWYRQAPGKERELVAAISSSGGITYYADSVKGRFTISRDNAKNTVYLQMNSLKPEDTAFYYCAADTGKGTPFSAGLGRAGDYWGQVTQVTVSS | low polyreactivity |
| QVQLEESGGGLVQAGGSLRLSCAASGIIFWYNAMGGSRQAPGKETELVAAISRGGGNTYADSVKGRFTISRDNAKNTVYLQMKSLKEVDTAVYYCAAKRSGYRFNTRWFRLPKYDYWGQGNQVTVSS | low polyreactivity |
| QVQLVESGGGLVQAGGSLRLTCAASGNTFDYYAMGWYRQAPGKERELVAAITRGGSTNYADSVKGRFTISRDNAKNTVYLQMNSLKPEDTAVYYCAAEQRAPRFADYDYWGQGTQVTVSS | low polyreactivity |
| QVQLVESGGGLVQAGGSLRLSCAASGLTFLVNAMGWYRQAPGKEREFVSVITTDGGGTYYADSVKGRFTISRDNAKNTVYLQMNSLKPEDTAVYYCAAESKYRTAATSYRLDYDYWGQGTQVTVSS | low polyreactivity |
| QVQLVESGGGLVQAGGSLRLICAASGSTFEYYAMGWYRPAPGKERELVAAINGIGGSTTYADSVKGRFTISRDNAKNTVYLQMNSLKPEDSAVYYCNADVARSKSQASAYDYWGQGTQVTVSS | low polyreactivity |
| QVQLVESGGGLVQAGGSLRLSCAASGIIFDEYAMGWYRQAPGKERELVATISSGGDTNYADSVKGRFTISRDNAKHTFYLQMNSLKPEDTALYYCAATVYDGYSPYDYDYWGQGTQVTVSS | low polyreactivity |
| QVQLVESGGGLVQAGGSLRLSCAASGLTFGVNAMGWYRQAPGKERELVAVITSGGNTYYADSVKGRFTISRDNAKNTVYLQMNSLKPEDTAVYYCAAYGRASWERDYWGQGTQVTVSS | low polyreactivity |
| QVQLVESGGGLVHAGGSLRLSCAASGSTFVRNAMGWYRPAPGKERQLVAAITSRGGSTYYADSVKGRFTISRDNAKNTVYLQMISLKPEDTAVYYCAARFGVKRGQYDYWGQGTQVTVSS | high polyreactivity |
| QVQLVESGGGLVQAGGSLRLSCAASGRTFTHYAMGWYRQAPGKERELVAAISRSGGTTYYADSVKGRFTISRDNAKNTVYLQMNSLKPEDTAVYYCAARWWYRYNYDYWGQGTQVTVSS | high polyreactivity |
| QVQLVESGGGLVQAGGSLRLSCAASGSICAYYAMGWYRQAPGKERELVAAISGTGGSTNYADSVKGRFTISRDNAKNNVYLQMNSLKPEDTAVYYCAKDYSFQWRNEFNLAGEYDYWGQGTQVTVSS | low polyreactivity |
| QVQLVESGGGLVQAGGSLRLSCAASGYIFWSNTMGWYRQAPGKERELVAAISQSTASTYYADSVKGRFTISRDNAKNTVYLQMNSLKPEDTAVYYCAAYYNFGDYEYDYWGQGTQVTVSS | low polyreactivity |
| QVQLVESGGGLVQAGGSLRLSCAASGSIFASYVMGWYRQAPGKERELVAAISSSGASTYYADSVKGRFTISRDNAKNTVSLQMNSLKPEDTAVSYCATPYYRSYLGDYWGQGTQVTVSS | high polyreactivity |
| QVQLVESGGGLVQAGGSLRLSCAASGSIFVWYVMGWYRQAPGKERELVAAITWSAARTYYADSVKGRFTISRDNAKNTVYLQMNSLKPADTAVYYCAADHVSYQPSSRIFDYWGHGTQVTVSS | low polyreactivity |
| QVQLVESGGGLVQAGGSLRLSCAASGITFTGYAMVWYRQAPGKERELVAAIRGGGNTYYADSVKGRFTISRDNAKNTVYLQMNSLKPEDTAVYYCAADDIAHQYFVSTVDVGMDYWGQGTQVTVSS | low polyreactivity |

| Sequence | polyreactivity (PSR sort gate) |
| --- | --- |
| QEQLQESGSGLVQAGVSLRLSSAASGNIVQDWVMGWYRQAPGKERELVAAISPGAITYYADSVKGRFTISSDNAKNTVYLQTNRLNPEDTAVYYCAAYYIVEFLHGYWGQGTRVTVSS | low polyreactivity |
| QVQLVESGGGLVQAGGSLRLSCAASGSIFAYNAMGWYRQAPGKDREFVAAISQSGGRTYYAHSVKGRFTISRDNAKNTVYLQMNILKPEDTAVYYCATDGIRLTRHRDYDYWGQGTQVTVSS | low polyreactivity |
| QVQLVESGGGLVQAGGSLRLSCAASGSTIGAYAMGWYRPAPGKERELVAAISRRGGSTYYADSVKGRFTISRDNAKNTVYLQMNSLKPEDSAVYYCNAVGTRVDGEHYYWGQGTQVTVSS | high polyreactivity |
| QVQLVESGGGLVQAGGSLRLSCAASGSTLRGYAMGWYRQAPGKERELVARITSGGRTSYADSVKGRFTISRDNAKNTVYLQMNSLKPEDTAVYYCATRIYGWSFGSWYKYDYWGQGTQVTVSS | low polyreactivity |
| QVQLVESGGGLVQAGGSLRLSCAASGFTSYLYTMGWYRQAPGKERELVATITLRGGSTYYADSVKGRFTISRDNAKNTVYLQMNSLKPEDTAVYYCAAPAYLTSHSRYDYWGQGTQVSVSS | high polyreactivity |
| HVQLVESGGGLVQAGGSLRLSCAASGSTFTTNVRGWYRQAPGKERELVAAISWNGASTNYADSVKGRFTISRDNAKNTVYLHMNSLNPEDTAVYYCAADVTGLVWDSYYYYFLYEYEYWGQGTQVTVSS | high polyreactivity |
| QVQLVESGGCLVQAGGSLRLSCAASGSIFQPYAMGWYRQEPGKEREIVAAISQSGTSTYYADSVNGRFTISRDNAKNTVYLQMNSLKPEVTAVYYCAAQCWHLDSQWQLYNYFYWGQGTQVTVSS | high polyreactivity |
| QVQLVESGGGLVQAGGSLRLSCAASGSTIRSNAMGWYRQAPGKERELVAAITSGGSTYYAESVKGRFTISRDNAKNTVYLQMNSLKPEDTAVYYCAVRYYRRRYDYWGQGTQVTVSS | low polyreactivity |
| QVQLVESGGGLVQAGGSLRLSCAASGRIFVINAMGWYRQAPGKERELVADITWSGGSTYADSVKGRFTISRDNAKNTVYLQMNSLKPEETAVYYCAKQRGGQPRSSTYYYWGQGTQVTVSS | high polyreactivity |
| QVQIVESGGGLFQAGGSLRLSCAASGLIFYSYAMGWYRQAPWKERELVAAISSGGGSTYYADSVKGRFTISRDNAKNTVYLQLNSLKPEDTAVYYCNRLYKYRTPDYDHWGQGTQVTVSS | high polyreactivity |
| QVQLVESGGGIVQAGGSLRLSCAASGRTFSTYAMGWYRQAPGKESELVARITSSGGSTYYADSVKGRFTISRDNAKNTVYFQMNSLKPEDTAVYYCAARPLVRYRMQWTGGYYYWGQGTQVTVSS | high polyreactivity |
| QVQLVESGGGLVQAGGSLRLSCAASGFTFSDNAMGWYRQAPGKERELVAAISRSGGRTYYADSVKGRFTISRDNAKNTVYLQMNSLKPEDTAVYYCAAYQYGMDYWGQGTQVTVSS | high polyreactivity |
| QVQLVESGGGLVQAGGSLRLSCAASGHIFSYYAMGWYRQAPGKERELVAAISSSGSSTYYADSVKGRFTISRDNAKNTVYLQMNSLKPEDTAVYYCNAPYIAWYDGDYWGQGTQVTVSS | low polyreactivity |
| QVQLVESGGGLVHAGGSLRLSCADSGSTLGSNAMGWYRQAPGKERELVAAITWSGGTTYYADSVKGRFTISRDNAKNTVYLQMNSLKPEDTAVYYCATGQSVIYRYEYWGQGTQVTVSS | low polyreactivity |
| QVQLVESGGVLVQAGGSLRLSCAASGITFNSYAMGWYRQAPGKERELVASISWIGGSTYYADSVKGRFTISRDNAKNTVYFQMNSLKPEDTAVYYCAVDKGTDYYYDVDYWGQGTQVTVSS | low polyreactivity |
